Data as given in patent publication US20250043319A1, “BIOSYNTHESIS OF CYCLOLAVANDULYL DERIVATIVES OF AROMATIC COMPOUNDS” (Invizyne Technologies, Inc., priority 2022, published 2025).

Tests used:
Assay type in all cases: biochemical
Details in all cases: cell-free reaction with CLDS and DMAPP (CLPP donor), 28° C., 48 hours, QTOF LC/MS, with vs without prenyltransferase
[1] = cell-free cyclolavandulylation activity screening of prenyltransferases, substrate olivetolic acid
Description: (§1) Genes encoding the following prenyltransferases were codon-optimized, synthesized, and cloned into the pET28a vector for protein expression and isolation/purification as described in Example 1. • NphB (Accession: 1ZB6_A) (SEQ ID NO: 8) • AbPT (Accession: KPI30840.1) (SEQ ID NO: 9) • SkPT (Accession: Q2L6E3.1) (SEQ ID NO: 10) • SvPT (Accession: WP_078899560.1) (SEQ ID NO: 11) • Sr1310PT (Accession: WP_057602682.1) (SEQ ID NO: 12) • NapT8 (Accession: ABS50461.1) (SEQ ID NO: 13) • NapT9 (Accession: ABS50490.1) (SEQ ID NO: 14) • Mcl23PT (Accession: AGH68908.1) (SEQ ID NO: 15) • CnqP3PT (Accession: WP_047018069.1) (SEQ ID NO: 16) • AtaWTPT (Accession: AMB20850.1) (SEQ ID NO: 17) • MzPT1 (Accession: WP_135330628.1) (SEQ ID NO: 18) • MzPT2 (Accession: WP_135330626.1) (SEQ ID NO: 19) B. Cell-Free Biosynthesis Reaction with CLPP and Various Aromatic Substrates
(§2) The cyclolavandulyl diphosphate synthase, CLDS was prepared as described in Example 1 and used in the synthesis of CLPP.
(§3) Stocks of the various aromatic compounds used as substrates for cyclolavandulylation activity screening were obtained from the following commercial sources: • Resveratrol (Fisher Scientific) 200 mM stock in DMSO • Luteolin (Fisher Scientific) 200 mM stock in DMSO • Naringenin (Fisher Scientific) 200 mM stock in DMSO • Tryptamine (Fisher Scientific) 200 mM stock in DMSO • Tryptophan (Fisher Scientific) 40 mM stock in water • Olivetolic acid (Toronto Research Chemicals) 200 mM stock in DMSO • Divarinic acid (Toronto Research Chemicals) 200 mM stock in DMSO • Phorolic acid (prepared in house) 200 mM stock in DMSO • Olivetol (Fisher Scientific) 200 mM stock in DMSO • Screening for cell-free biosynthesis was carried out as follows. 10 mM DMAPP, 5 mM MgCl2, 100 mM Tris-HCl (pH=8), and 4 mg/mL CLDS (SEQ ID NO: 4) were combined in a 6.80 mL reaction, which was incubated at 28° C. for 48 hours. This mixture was aliquoted into a 96-well plate (80 μL per well). The various prenyltransferases (18 μL, ˜1 g/L final concentration) listed above were screened across various substrates (2 μL of stock solution, variable concentration shown above), which were added to the wells and incubated at 28° C. for an additional 48 hours.
(§4) Analysis of the reaction mixture was carried out as follows: 50 μL of the reaction mixture were added to 1 mL MeOH. The resulting solution was vortexed, centrifuged at 17,200 g for 5 minutes, and transferred to an HPLC vial for analysis. HRMS-QTOF analyses of the cell free reactions was performed on an Agilent Technologies 6545 Accurate Mass QTOF LC/MS with a reverse-phase column (Agilent Infinity Lab Poroshell 120 ECC18, 2.7 μm, 3.0×50 mm) using positive ESI with 1% MeCN—H2O (0.1% FA) for 2 min followed by a linear gradient of 1-99% MeCN—H2O (0.1% FA) for 14 min with a flow rate of 0.4 mL/min.
(§5) Mass spectrometric (MS) analysis of chromatograms was carried out using MassHunter Qualitative Analysis 10.0. Targeted metabolomics using the exact m/z of the calculated proton adduct [H^+] in the presence and absence of prenyltransferase indicated the presence of cyclolavandulylated product.

[2] = cell-free cyclolavandulylation activity screening of prenyltransferases, substrate tryptamine
Description: as §1, §2, §3, §4, §5

[3] = cell-free cyclolavandulylation activity screening of prenyltransferases, substrate tryptophan
Description: as §1, §2, §3, §4, §5

[4] = cell-free cyclolavandulylation activity screening of prenyltransferases, substrate luteolin
Description: as §1, §2, §3, §4, §5

[5] = cell-free cyclolavandulylation activity screening of prenyltransferases, substrate resveratrol
Description: as §1, §2, §3, §4, §5

[6] = cell-free cyclolavandulylation activity screening of prenyltransferases, substrate naringenin
Description: as §1, §2, §3, §4, §5

B1: SkPT: prenyltransferase, Accession: Q2L6E3.1, SEQ ID NO: 10 (protein, listed as Streptomyces sp.)
chain: MPGTDDVAVDVASVYSAIEKSAGLLDVTAAREVVWPVLTAFEDVLEQAVIAFRVATNARHEGDFDVRFTVPEEVDPYAVALSRSLIAKTDHPVGSLLSDIQQLCSVDTYGVDLGVKSGFKKVWVYFPAGEHETLARLTGLTSMPGSLAGNVDFFTRYGLADKVDVIGIDYRSRTMNVYFAAPSECFERETVLAMHRDIGLPSPSEQMFKFCENSFGLYTTLNWDTMEIERISYGVKTENPMTFFARLGTKVEHFVKNVPYGVDTQKMVYAAVTSSGEEYYKLQSYYRWRSVSRLNAAYIAARDKEST
No: presence of cyclolavandulylated product, Aromatic Compound (Substrate) Olivetolic Acid [1] | presence of cyclolavandulylated product, Aromatic Compound (Substrate) Tryptamine [2] | presence of cyclolavandulylated product, Aromatic Compound (Substrate) Tryptophan [3] | presence of cyclolavandulylated product, Aromatic Compound (Substrate) Luteolin [4] | presence of cyclolavandulylated product, Aromatic Compound (Substrate) Resveratrol [5] | presence of cyclolavandulylated product, Aromatic Compound (Substrate) Naringenin [6]

B2: SvPT: prenyltransferase, Accession: WP_078899560.1, SEQ ID NO: 11 (protein, listed as Streptomyces sp.)
chain: MSEASELADIYSAIEETAQLLDVPCSRDKVQPALAAFGDGLADAHIVFSMATGERYKGELAFDFTVPTAAGDPYAIALANGLVEETDHPIRTLFSDVQKRCPVDSYGVDYGIVGGFKKTYISFPLGDLQRLSALVGIPSMPRALAEHADFFASHGLDDKVSAIAIDYAHRTWNVYFSGIPAEVKEPQTLQSVLQKFGLPEPSEQLMDFIRTSFAMYTTFGWDSTKAERICFSARSSDPTALPAQFEPQIGKFAKSAPYTYTGERVLTYAGALSPSEEFYKLATFYQKTSKLSDRVRPAT
No: presence of cyclolavandulylated product, Aromatic Compound (Substrate) Olivetolic Acid [1] | presence of cyclolavandulylated product, Aromatic Compound (Substrate) Tryptamine [2] | presence of cyclolavandulylated product, Aromatic Compound (Substrate) Tryptophan [3] | presence of cyclolavandulylated product, Aromatic Compound (Substrate) Luteolin [4] | presence of cyclolavandulylated product, Aromatic Compound (Substrate) Resveratrol [5] | presence of cyclolavandulylated product, Aromatic Compound (Substrate) Naringenin [6]

B3: Sr1310PT: prenyltransferase, Accession: WP_057602682.1, SEQ ID NO: 12 (protein, listed as Streptomyces sp.)
chain: MSGAADVERVYAAMEEAAGLLDVSCAREKIYPLLTVFQDTLTDGVVVFSMASGRRSTELDFSISVPVSQGDPYATVVKEGLFQATGSPVDELLADTVAHLPVSMFAIDGEVTGGFKKTYAFFPTDDMPGVAQLAAIPSMPASVAENAELFARYGLDKVQMTSMDYKKRQVNLYFSDLKQEYLQPESVVALARELGLRVPGELGLEFCKRSFAVYPTLNWDTGKIDRLCFAAISTDPTLVPSEDERDIEMFRNYATKAPYAYVGEKRTLVYGLTLSSTEEYYKLGAYYHITDIQRQLLKAFDALED
No: presence of cyclolavandulylated product, Aromatic Compound (Substrate) Olivetolic Acid [1] | presence of cyclolavandulylated product, Aromatic Compound (Substrate) Tryptamine [2] | presence of cyclolavandulylated product, Aromatic Compound (Substrate) Tryptophan [3] | presence of cyclolavandulylated product, Aromatic Compound (Substrate) Luteolin [4] | presence of cyclolavandulylated product, Aromatic Compound (Substrate) Resveratrol [5] | presence of cyclolavandulylated product, Aromatic Compound (Substrate) Naringenin [6]

B4: NapT8: prenyltransferase, Accession: ABS50461.1, SEQ ID NO: 13 (protein, listed as Streptomyces aculeolatus)
chain: MEGLYAAIEEASGLLDVAPSRDKVWPILSAYELDKVVVAFRVTTRGSKDLDCRFTALPADVNPYRYAVSKGIAEATDHPVGTLLDDVQANIPVTAHGVDFGVVEGFRKTWTFLPGNDLQKLSKVAALPSMPPSLAENLDFYARYGLDDKNSMIGIDYPSRTVNVYFLQFPDETREPETVRAMLRDLGLPEPSEQMLTLAKQAVGIYTTLTWDSPKIQRITFATLVPDAEALPGRIAVEPSVEKFARNVPHTYPGPVQGLYNVASYSGGEYFKLQTYHQLAEGSLEARVLLGAAGAGS
No: presence of cyclolavandulylated product, Aromatic Compound (Substrate) Olivetolic Acid [1] | presence of cyclolavandulylated product, Aromatic Compound (Substrate) Tryptamine [2] | presence of cyclolavandulylated product, Aromatic Compound (Substrate) Tryptophan [3] | presence of cyclolavandulylated product, Aromatic Compound (Substrate) Luteolin [4] | presence of cyclolavandulylated product, Aromatic Compound (Substrate) Resveratrol [5] | presence of cyclolavandulylated product, Aromatic Compound (Substrate) Naringenin [6]

B5: Mcl23PT: prenyltransferase, Accession: AGH68908.1, SEQ ID NO: 15 (protein, listed as Streptomyces sp.)
chain: MSGETDAEELCSAIEETARLVGAPCSREKIWPILTEYRSGFAEGGVVFSAQAGENHAGELDYGLAVPPRIDDPYAHALAHGFVTETDHPVAALLSDIRERCAVTEHFADCGVVGGFRKLYAHFPRDLQKVSEIADIPSMPRAVAENVGLFTRYGLENVVMVGVNYKNKTVSLYFQFTAEGRPRPSAIRSMLGDIGMTEPNERMLDFASNSFRANITLSWDSPKILRVAFAPPPGAGLNLSTVPIPTGPHLEDFVTRAPRAYDGERMNLFAVKWTQDKEFLEVCSYYQLPAGYEPIRQMEIHKEQG
No: presence of cyclolavandulylated product, Aromatic Compound (Substrate) Olivetolic Acid [1] | presence of cyclolavandulylated product, Aromatic Compound (Substrate) Tryptamine [2] | presence of cyclolavandulylated product, Aromatic Compound (Substrate) Tryptophan [3] | presence of cyclolavandulylated product, Aromatic Compound (Substrate) Luteolin [4] | presence of cyclolavandulylated product, Aromatic Compound (Substrate) Resveratrol [5] | presence of cyclolavandulylated product, Aromatic Compound (Substrate) Naringenin [6]

B6: CnqP3PT: prenyltransferase, Accession: WP_047018069.1, SEQ ID NO: 16 (protein, listed as Streptomyces sp.)
chain: MSGAADVERVYSAMEEAARLLDITVSREKVRPALEAYHEVLADAVVVFSMASGRYATELDFSISVPAEAGDPYRVALAKGLTPRTDHPVGRLLADTQEHCPVSMFAFDGEITGGFKKTYAFFPTNDLQSASKLAEIPSMPDSVKENADLFARYGLDKVQMTSIDYKKKAVNLYFSEMSPDILGPDTVRSMLRDMGLKETGETGLTFARRSFSVYPTLNWETGRIERLCFAVISRDPTLAPAERAEDLAKFSKYANNAPYAYAGEARTLVYGLTLTPREEYYKLGSYYQISDIQRKLLKAFDSLND
No: presence of cyclolavandulylated product, Aromatic Compound (Substrate) Olivetolic Acid [1] | presence of cyclolavandulylated product, Aromatic Compound (Substrate) Tryptamine [2] | presence of cyclolavandulylated product, Aromatic Compound (Substrate) Tryptophan [3] | presence of cyclolavandulylated product, Aromatic Compound (Substrate) Luteolin [4] | presence of cyclolavandulylated product, Aromatic Compound (Substrate) Resveratrol [5] | presence of cyclolavandulylated product, Aromatic Compound (Substrate) Naringenin [6]

B7: MzPT2: prenyltransferase, Accession: WP_135330626.1, SEQ ID NO: 19 (protein, listed as Streptomyces sp.)
chain: MSGTAVEKLYSAIEETAGLLDVTCSRDKVWPVLASFEDAIPQAAILFRVATDKRHAGELNLHFMMLPGDVDPYALALSNDLMAKTEHPVGSLLSDIAERFPVESYGIDFGVVKGFQKTWSCFPGNSMQSLSKLAEVPSVPSSLAGNLDFFSRYGLDENVTLVGIDFEHRTMNVYFGEVAELLEPDAVKSMLRDLEMPEPSEQLLNFAKQSFGFYATLSWDSPRIERFCYAAIAPDPMALLDQVEPKIEHFLKTVPYGVDDPKAVYAATSPNDGEFYKIQSYYQWRPRLVNHMHTSVSDSGE
No: presence of cyclolavandulylated product, Aromatic Compound (Substrate) Olivetolic Acid [1] | presence of cyclolavandulylated product, Aromatic Compound (Substrate) Tryptamine [2] | presence of cyclolavandulylated product, Aromatic Compound (Substrate) Tryptophan [3] | presence of cyclolavandulylated product, Aromatic Compound (Substrate) Luteolin [4] | presence of cyclolavandulylated product, Aromatic Compound (Substrate) Resveratrol [5] | presence of cyclolavandulylated product, Aromatic Compound (Substrate) Naringenin [6]
